Laboratory results: PMC9156947

Legend:
[1] = target: C10-STAU1 with the RBD2 domain deleted (UniProt O95793); assay: split reporter (BiFC, NanoBiT); tripartite Nanoluc luciferase: C10-tagged and N8-tagged proteins co-transfected with a plasmid expressing Nano1-7 into HepG2 cells; luciferase activity measured 48 h post-transfection
[2] = target: N8-HBx (UniProt P03165); assay: tripartite Nanoluc system (luciferase complementation); conditions: HepG2 cells; co-transfected with a plasmid expressing Nano1-7; luciferase activity measured 48 h post-transfection; parent: 100%
[3] = target: C10-DDB1M381/2; assay: as above; conditions: HepG2 cells; co-transfected with a plasmid expressing Nano1-7; luciferase activity measured 48 h post-transfection; parent: 100%
[4] = target: C10-DDB1 (UniProt Q16531); assay: as above; conditions: HepG2 cells; co-transfected with a plasmid expressing Nano1-7; luciferase activity measured 48 h post-transfection; parent: 100%
C10-DDB1, sequence (Q16531 whole entry): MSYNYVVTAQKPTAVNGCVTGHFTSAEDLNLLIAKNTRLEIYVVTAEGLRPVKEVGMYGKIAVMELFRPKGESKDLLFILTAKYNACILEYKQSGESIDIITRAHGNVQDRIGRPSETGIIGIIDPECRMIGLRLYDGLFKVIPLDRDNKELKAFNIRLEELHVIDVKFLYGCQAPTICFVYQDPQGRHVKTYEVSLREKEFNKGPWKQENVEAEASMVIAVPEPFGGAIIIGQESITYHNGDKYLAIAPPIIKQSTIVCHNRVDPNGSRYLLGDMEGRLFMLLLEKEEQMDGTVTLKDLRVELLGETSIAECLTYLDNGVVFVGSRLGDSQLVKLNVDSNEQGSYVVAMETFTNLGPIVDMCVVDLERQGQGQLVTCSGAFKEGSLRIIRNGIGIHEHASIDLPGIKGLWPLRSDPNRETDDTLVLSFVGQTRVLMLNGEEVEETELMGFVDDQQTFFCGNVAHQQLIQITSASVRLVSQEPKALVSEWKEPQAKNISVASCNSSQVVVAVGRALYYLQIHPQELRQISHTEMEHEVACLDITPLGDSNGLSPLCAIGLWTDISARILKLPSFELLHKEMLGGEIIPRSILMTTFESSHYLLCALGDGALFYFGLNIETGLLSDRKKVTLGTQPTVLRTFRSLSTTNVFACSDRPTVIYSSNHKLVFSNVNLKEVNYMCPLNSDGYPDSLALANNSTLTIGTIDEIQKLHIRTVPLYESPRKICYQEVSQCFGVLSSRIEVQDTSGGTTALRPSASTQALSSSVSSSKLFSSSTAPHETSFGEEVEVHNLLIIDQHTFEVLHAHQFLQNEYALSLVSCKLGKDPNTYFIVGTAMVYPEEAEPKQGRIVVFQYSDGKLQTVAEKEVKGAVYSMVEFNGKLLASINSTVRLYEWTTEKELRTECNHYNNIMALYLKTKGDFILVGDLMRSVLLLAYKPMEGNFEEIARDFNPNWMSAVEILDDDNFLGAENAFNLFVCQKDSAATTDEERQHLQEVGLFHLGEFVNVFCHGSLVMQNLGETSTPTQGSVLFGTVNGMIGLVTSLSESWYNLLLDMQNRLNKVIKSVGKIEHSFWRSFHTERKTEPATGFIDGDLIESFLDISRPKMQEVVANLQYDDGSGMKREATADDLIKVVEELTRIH

N8-HBx (from UniProt P03165 1-154) (natural protein)
fold luminescence against wild type STAU1 [1]: 2 fold

C10-DDB1 (from UniProt Q16531) M381/2
percent of parent [2]: 0.68%

m3; m4 HBx:96E; DDB1:M381/2
percent of parent [3]: 0.2%

N8-HBx (from UniProt P03165) 96E
percent of parent [4]: 0.25%
